Experimental data published in publication PMC12208556.

Target: recombinant full-length thrombospondin-1 (human) (UniProt P07996)
Test: SPR; BIAcore 3000; TSP-1 bound covalently to CM5 chips at 0.1 uM; complement proteins as analytes at 12.3, 37.03, 111.1, 333.3, 1,000 nM in PBS plus 0.05% Tween 20; 1:1 Langmuir binding model; average of 3 repeated measurements

recombinant full-length thrombospondin-1 (human), sequence (P07996 19-1170): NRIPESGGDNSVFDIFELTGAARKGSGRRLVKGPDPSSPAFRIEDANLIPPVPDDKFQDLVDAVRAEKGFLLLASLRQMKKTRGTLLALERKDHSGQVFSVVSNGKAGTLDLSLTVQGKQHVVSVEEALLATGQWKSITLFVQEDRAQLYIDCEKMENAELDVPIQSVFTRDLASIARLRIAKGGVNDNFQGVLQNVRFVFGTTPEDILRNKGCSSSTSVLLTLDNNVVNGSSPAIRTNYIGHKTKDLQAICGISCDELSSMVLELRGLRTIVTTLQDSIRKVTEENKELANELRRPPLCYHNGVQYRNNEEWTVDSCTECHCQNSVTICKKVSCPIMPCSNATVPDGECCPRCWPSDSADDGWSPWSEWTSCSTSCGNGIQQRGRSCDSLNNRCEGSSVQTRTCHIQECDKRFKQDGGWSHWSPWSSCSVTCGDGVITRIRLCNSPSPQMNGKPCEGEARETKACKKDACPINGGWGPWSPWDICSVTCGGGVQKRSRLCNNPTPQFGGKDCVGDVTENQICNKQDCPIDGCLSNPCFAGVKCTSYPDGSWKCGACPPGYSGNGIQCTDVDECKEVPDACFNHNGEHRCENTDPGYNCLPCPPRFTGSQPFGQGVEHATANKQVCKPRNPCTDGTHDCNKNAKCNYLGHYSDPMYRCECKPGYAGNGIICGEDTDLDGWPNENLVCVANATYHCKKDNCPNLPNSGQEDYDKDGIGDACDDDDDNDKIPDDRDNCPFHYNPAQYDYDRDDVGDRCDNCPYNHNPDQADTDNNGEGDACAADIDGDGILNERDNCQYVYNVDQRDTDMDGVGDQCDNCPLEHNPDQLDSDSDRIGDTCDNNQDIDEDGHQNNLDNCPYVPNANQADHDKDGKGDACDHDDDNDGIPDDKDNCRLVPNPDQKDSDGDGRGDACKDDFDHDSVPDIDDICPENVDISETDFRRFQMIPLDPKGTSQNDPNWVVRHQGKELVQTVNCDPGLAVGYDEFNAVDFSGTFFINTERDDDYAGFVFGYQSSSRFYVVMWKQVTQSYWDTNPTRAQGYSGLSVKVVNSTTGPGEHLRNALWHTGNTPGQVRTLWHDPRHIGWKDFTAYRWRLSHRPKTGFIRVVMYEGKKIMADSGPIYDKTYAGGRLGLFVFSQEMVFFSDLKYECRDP

| Kd | Substance |
| --- | --- |
| 127 nM | complement C3 (natural protein) |
| 47.2 nM | complement C5 (natural protein) |
